Data reported in patent publication US20230270832A1, “MAGEA1 IMMUNOGENIC PEPTIDES, BINDING PROTEINS RECOGNIZING MAGEA1 IMMUNOGENIC PEPTIDES, AND USES THEREOF” (TScan Therapeutics, Inc., priority 2021, published 2023).

Legend:
[1] = target: T1, epitope from MAGEA1 presented by HLA C*07:02 (Homo sapiens, UniProt P10321+P43355, DEL298-309); test: Identification of MAGEA1-reactive TCRs from pool of TCR-transduced T cells (CD137/CD69 sorting, TCR sequencing); type: cell-based; conditions: target cells transduced with MAGEA1 90-mer
T1 construct: an individual 90-amino acid fragments representing the top-scoring MAGEA1 tile from the screen; expressed in transfected cells; host or cells: MHC monoallelic C*07:02 HEK293T cells, lentivirally transduced with the MAGEA1 90-mer
Source text: Ten orphan TCRs from this patient were pooled together to identify their cognate antigens using the genome-wide TargetScan technology. This screen identified MAGEA1 as a novel target. […] Note that the term “TCR32-39” may also be known as “TCR39” and the term “TCR32-41” may also be known as “TCR41”.
To identify the corresponding TCR from the pool of TCR-transduced T cells, Ml-IC monoallelic C*07:02 HEK293T cells engineered to express the MAGEA1 90mer were co-cultured with the pool of T cells at an E:T ratio of 1:1 for 16-24 hours. The T cells were mixed, collected by pipetting, and labeled with a CD137 microbead kit (Miltenyi) following the manufacturer's instructions. In brief, T cells were first stained with PE-labeled anti-CD137 and AF647-labeled anti-CD69 (BioLegend), washed, and then labeled with anti-PE microbeads. Labeled cells were enriched with an autoMACS® Pro separator (Miltenyi) and CD137 and CD69 double-positive cells were sorted on a MoFlo® Astrios™ Cell Sorter (Beckman Coulter). Genomic DNA was extracted from the sorted cells and the TCR expression cassette was PCR amplified and prepared for next generation sequencing (NGS).

[2] = tested on: >600,000 protein fragments spanning every wild-type (w.t.) human protein; test: Genome-wide SafetyScan off-target screen; type: cell-based; conditions: overexpressed 90-aa protein fragments
Description: Primary CD8+ T cells were prepared as described above to express HN-P32-41. Triplicate wells transduced with lentiviral particles to express HN-32-41 combined in fresh complete T cell medium, and expanded until Day 5 in a G-Rex° 10 culture vessel (Wilson Wolf). On Day 5, cells were harvested, and cell concentrations were adjusted to 100 ×10^6 CD3^+ T cells/mL in EasySep buffer (StemCell Inc) and FcBlock solution with CD34 magnetic beads (Miltenyi) for 30 minutes at 4C, washed with EasySep buffer, and separated using a QuadroMACS® Separator and LS columns (Miltenyi). Isolated cells were washed and resuspended in fresh complete T cell medium and expanded in G-Rex®10 flasks (Wilson Wolf) until day 12, at which point cells were frozen in CryoStor® CS10 and stored at liquid nitrogen until use.
CD8+ T cells expressing HN-32-41 were thawed and restimulated (further expanded) by co-culturing T cells with irradiated (60 grays) allogeneic PBMCs in the presence of 0.1 ug/mL anti-CD3 (OKT3, eBioscience) and 50 U/mL recombinant IL-2 (Peprotech) in fresh T cell medium (RPMI 1640 supplemented with 10% heat-inactivated fetal bovine serum (FBS), 100 IU/mL penicillin, 100 μg/mL streptomycin, recombinant human IL-2 [50 U/mL, PeproTech]) in GRex® 100 flasks (Wilson Wolf). 50 U/mL recombinant IL-2 was added to expanding cells every other day until day 6. […]

B1: TCR 32-41: T cell receptor recognizing MAGEA1 epitope presented by HLA-C*07:02; alpha TRAV27/TRAJ52, beta TRBV12-4/TRBJ1-4; wild type, HM and MGTM sequences listed (protein)
TCR alpha: QLLEQSPQFLSIQEGENLTVYCNSSSVFSSLQWYRQEPGEGPVLLVTVVTGGEVKKLKRLTFQFGDARKDSSLHITAAQPGDTGLYLCAGDESISYGKLTFGQGTILTVHPNIQNPEPAVYQLKDPRSQDSTLCLFTDFDSQINVPKTMESGTFITDKCVLDMKAMDSKSNGAIAWSNQTSFTCQDIFKETNATYPSSDVPCDATLTEKSFETDMNLNFQNLLVMVLRILLLKVAGFNLLMTLRLWSS
TCR beta: DAGVIQSPRHEVTEMGQEVTLRCKPISGHDYLFWYRQTMMRGLELLIYFNNNVPIDDSGMPEDRFSAKMPNASFSTLKIQPSEPRDSAVYFCASSFLGWNEKLFFGSGTQLSVLEDLRNVTPPKVSLFEPSKAEIANKQKATLVCLARGFFPDHVELSWWVNGKEVHSGVCTDPQAYKESNYSYCLSSRLRVSATFWHNPRNHFRCQVQFHGLSEEDKWPEGSPKPVTQNISAEAWGRADCGITSASYQQGVLSATILYEILLGKATLYAVLVSTLVVMAMVKRKNS
recognition of MAGEA1 epitope / identification as MAGEA1-reactive TCR ([1]; listed as HN-32-41): recognizing the same novel epitope from MAGEA1 presented by HLA C*07:02 | recognition of MAGEA1 epitope / identification as MAGEA1-reactive TCR ([1]; listed as TCR 41): hits | putative off-targets identified in screen [2]: seven potential off-targets
